# Laboratory results as given in the supplement of paper PMC6379048.
# Experiments:
# Assay in all cases: EC50 of free RNA motif oligo competing protein binding to immobilised probe
# RPS14 = RPS14 (UniProt P62263)
# How it was run: (§1)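 Free RNA oligos (0 nM to 30 μM) competed for 1 h at 4°C in HEK293-FT lysate (2.5 mg protein/well) before a 30 min, 4°C pulldown with the same oligos on NHS-Sepharose beads. Bound proteins were quantified by label-free LC-MS/MS and normalised to the control. Kd was found by multiplying EC50, from a four-parameter log-logistic fit, by a protein-dependent depletion factor.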
# PARP12 = target: T1, PARP12 (UniProt Q9H0J9)
# T1 sequence: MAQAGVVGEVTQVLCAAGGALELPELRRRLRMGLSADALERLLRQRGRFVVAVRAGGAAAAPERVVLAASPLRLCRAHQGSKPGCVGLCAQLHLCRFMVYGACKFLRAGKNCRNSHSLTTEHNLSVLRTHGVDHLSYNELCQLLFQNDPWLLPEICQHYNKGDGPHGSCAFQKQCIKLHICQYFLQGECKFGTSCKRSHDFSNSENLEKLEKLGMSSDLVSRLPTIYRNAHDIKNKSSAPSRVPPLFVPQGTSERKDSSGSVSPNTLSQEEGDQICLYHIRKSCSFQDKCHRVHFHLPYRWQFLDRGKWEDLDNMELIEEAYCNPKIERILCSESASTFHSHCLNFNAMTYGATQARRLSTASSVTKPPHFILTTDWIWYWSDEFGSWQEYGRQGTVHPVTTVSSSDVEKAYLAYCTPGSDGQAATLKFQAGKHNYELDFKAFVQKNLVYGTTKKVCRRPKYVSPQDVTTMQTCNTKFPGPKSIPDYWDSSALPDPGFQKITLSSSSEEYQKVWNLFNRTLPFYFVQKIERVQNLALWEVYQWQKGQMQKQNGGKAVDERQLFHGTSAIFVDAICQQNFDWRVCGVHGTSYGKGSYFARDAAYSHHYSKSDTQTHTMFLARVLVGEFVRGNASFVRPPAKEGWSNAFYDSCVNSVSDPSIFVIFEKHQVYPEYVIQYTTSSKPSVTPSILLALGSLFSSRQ
# How it was run: as §1
# SYMPK = target: T2, SYMPK (UniProt Q92797)
# T2 sequence: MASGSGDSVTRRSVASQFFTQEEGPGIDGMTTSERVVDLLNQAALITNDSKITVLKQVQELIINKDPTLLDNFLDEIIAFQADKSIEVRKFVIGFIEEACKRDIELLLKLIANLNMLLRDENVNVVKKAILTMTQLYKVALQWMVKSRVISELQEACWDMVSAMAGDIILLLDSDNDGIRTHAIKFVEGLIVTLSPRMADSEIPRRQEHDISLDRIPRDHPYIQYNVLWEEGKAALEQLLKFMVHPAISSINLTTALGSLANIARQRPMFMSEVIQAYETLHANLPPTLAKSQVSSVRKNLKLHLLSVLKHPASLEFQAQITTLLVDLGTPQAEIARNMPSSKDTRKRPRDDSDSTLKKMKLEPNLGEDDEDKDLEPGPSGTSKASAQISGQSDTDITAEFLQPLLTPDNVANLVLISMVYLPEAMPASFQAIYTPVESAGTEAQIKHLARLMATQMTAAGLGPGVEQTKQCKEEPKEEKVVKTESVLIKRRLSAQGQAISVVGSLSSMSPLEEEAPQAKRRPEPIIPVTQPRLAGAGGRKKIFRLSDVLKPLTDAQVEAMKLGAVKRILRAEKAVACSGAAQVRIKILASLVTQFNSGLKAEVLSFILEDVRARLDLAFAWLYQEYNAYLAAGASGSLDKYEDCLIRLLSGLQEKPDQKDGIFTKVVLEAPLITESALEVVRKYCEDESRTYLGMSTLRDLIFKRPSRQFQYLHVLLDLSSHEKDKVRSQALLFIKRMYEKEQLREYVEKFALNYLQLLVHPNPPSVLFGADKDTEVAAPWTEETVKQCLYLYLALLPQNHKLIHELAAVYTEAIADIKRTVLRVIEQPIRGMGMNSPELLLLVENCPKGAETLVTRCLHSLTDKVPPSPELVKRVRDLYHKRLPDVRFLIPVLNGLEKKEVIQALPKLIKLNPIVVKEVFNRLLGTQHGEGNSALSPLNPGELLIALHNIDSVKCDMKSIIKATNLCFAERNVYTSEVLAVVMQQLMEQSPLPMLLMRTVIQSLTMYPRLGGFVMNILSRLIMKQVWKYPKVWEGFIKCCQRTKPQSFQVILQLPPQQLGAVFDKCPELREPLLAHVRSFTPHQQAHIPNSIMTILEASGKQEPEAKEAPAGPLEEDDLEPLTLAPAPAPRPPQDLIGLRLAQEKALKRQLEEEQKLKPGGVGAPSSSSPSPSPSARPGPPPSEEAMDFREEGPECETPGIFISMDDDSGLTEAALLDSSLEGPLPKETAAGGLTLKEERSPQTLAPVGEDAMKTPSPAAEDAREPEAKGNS
# How it was run: as §1
# GRSF1 = target: T3, GRSF1 (UniProt Q12849)
# T3 sequence: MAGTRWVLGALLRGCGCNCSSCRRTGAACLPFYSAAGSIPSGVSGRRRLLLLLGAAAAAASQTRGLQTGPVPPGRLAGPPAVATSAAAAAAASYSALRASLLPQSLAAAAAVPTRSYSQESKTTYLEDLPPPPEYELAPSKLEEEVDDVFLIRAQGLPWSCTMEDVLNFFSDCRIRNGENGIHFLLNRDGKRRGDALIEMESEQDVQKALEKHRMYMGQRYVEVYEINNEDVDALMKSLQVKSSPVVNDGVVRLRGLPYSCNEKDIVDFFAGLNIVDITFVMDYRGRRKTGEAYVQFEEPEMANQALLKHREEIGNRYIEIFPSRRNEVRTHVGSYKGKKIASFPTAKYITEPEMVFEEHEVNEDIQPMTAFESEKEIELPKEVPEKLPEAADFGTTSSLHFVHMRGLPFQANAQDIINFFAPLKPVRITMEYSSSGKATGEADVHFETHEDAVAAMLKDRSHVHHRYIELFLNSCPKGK
# How it was run: as §1
# ZNFX1 = ZNFX1 (UniProt Q9P2E3)
# ZNFX1, sequence (Q9P2E3 whole entry): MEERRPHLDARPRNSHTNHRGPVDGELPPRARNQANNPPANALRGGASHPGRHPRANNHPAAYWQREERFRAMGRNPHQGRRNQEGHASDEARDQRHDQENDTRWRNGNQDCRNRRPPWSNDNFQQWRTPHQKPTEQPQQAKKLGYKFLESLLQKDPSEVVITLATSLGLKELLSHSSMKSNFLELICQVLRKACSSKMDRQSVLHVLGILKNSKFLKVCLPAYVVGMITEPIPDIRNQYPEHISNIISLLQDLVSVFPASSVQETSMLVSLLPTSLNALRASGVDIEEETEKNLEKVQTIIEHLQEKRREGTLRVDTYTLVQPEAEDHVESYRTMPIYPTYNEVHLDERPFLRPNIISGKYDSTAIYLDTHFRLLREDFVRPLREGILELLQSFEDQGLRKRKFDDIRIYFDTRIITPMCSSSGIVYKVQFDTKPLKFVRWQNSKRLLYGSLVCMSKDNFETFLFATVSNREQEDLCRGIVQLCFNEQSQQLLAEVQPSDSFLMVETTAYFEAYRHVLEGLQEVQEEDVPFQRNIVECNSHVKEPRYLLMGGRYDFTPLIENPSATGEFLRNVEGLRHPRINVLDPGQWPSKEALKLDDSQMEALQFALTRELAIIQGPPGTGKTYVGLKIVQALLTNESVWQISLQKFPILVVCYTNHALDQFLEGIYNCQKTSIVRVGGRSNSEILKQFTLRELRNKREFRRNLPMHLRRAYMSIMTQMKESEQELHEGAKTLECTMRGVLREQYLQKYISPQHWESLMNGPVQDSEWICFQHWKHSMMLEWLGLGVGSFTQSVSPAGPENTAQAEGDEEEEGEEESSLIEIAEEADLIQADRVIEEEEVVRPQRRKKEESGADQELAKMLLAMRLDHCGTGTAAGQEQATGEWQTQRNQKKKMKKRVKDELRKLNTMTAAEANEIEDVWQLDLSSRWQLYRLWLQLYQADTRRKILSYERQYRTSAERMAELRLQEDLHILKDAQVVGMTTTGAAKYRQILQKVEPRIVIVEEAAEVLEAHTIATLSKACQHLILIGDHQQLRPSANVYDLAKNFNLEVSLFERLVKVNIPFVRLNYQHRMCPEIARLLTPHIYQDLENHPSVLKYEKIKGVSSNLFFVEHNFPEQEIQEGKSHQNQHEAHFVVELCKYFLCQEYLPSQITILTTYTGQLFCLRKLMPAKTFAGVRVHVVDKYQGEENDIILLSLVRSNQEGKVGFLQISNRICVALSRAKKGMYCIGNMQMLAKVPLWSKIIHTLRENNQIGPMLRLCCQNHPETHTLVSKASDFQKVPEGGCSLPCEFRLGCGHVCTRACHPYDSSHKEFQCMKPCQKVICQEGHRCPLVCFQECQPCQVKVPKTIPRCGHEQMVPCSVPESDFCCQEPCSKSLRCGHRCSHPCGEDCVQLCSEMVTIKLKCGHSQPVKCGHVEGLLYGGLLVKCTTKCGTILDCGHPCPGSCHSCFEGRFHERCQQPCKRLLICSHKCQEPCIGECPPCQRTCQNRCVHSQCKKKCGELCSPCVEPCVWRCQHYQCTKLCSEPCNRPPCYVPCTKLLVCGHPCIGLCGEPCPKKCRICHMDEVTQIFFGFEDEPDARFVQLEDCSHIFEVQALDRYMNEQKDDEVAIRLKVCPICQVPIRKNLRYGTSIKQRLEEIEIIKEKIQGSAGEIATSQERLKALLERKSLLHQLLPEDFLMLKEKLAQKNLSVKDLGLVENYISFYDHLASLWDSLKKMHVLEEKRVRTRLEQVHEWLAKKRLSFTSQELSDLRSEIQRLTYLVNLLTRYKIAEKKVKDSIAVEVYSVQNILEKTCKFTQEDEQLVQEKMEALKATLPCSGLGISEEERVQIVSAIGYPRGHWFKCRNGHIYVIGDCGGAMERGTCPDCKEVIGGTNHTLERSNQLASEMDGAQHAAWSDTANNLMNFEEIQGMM
# How it was run: as §1
# PPIE = PPIE (UniProt Q9UNP9)
# PPIE, sequence (Q9UNP9 whole entry): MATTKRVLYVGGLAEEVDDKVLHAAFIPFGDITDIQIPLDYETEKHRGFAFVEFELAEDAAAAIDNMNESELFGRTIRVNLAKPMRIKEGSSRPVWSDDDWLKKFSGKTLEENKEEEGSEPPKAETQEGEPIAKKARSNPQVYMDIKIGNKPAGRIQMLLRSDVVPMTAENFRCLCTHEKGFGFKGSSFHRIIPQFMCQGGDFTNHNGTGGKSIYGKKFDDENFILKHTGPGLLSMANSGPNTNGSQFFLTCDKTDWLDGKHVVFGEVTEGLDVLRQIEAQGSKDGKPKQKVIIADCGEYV
# How it was run: as §1
sequence,measurement,setting,value
CUGUCCU,EC50,RPS14,180 nM
AAUAAA,EC50,PARP12,11200 nM
same,EC50,SYMPK,116 nM
UAUUUAU,EC50,GRSF1,18000 nM
same,EC50,ZNFX1,436 nM
same,EC50,PPIE,300 nM
